The test has as its target Atezolizumab. Kind of test: microscale thermophoresis instrument, ligand-induced fluorescence change; f-F0 held at 10 nM, the concentration axis is that of atezolizumab. (In general: In MST a laser heats a spot of the sample, and binding alters the fluorescence response.)

The term EC50 (read off the curve) denotes the concentration needed to bring the measured effect to its halfway point. A high value points to a less potent agent. As to “peptide f-F0 (FITC-labeled parental Fc-III peptide F0, disulfide bond replaced by a thioether bond)”, the 50% effective concentration (EC50 (read off the curve)) worked out at 20 nM.

The values are drawn from patent US20240024504A1, “SITE-SELECTIVE LYSINE ACETYLATION OF HUMAN IMMUNOGLOBULIN G AND IgG-RELATED PRODUCTS FOR IMMUNOTHERAPY” (The Chinese University of Hong Kong, priority 2022, published 2024).
